Data taken from patent US20210324111A1 (UCB, published 2021).
Positions count from the first letter of the chain named.

B1: 645gL4gH5 Fab-A26 BYbe wt (bispecific antibody, part only; not given: A26 dsscFv, linker, CH1, CL, V domains shown, not shown: another chain or arm of the molecule; a dimerising Fc or GST; small tags and cut ends)
VH: EVQLLESGGGLVQPGGSLRLSCAVSGIDLSNYAINWVRQAPGKQLEWIGIIWASGTTFYATWAKGRFTISRDNSKNTVYLQMNSLRAEDTAVYYCARTVPGYSTAPYFDLWGQGTLVTVSS
VL: DIQMTQSPSSVSASVGDRVTITCQSSPSVWSNFLSWYQQKPGKAPKLLIYEASKLTSGVPSRFSGSGSGTDFTLTISSLQPEDFATYYCGGGYSSISDTTFGGGTKVEIK
B2: 645CDR-2109FW Fab nh (Fab, V domains shown)
VH: B1 VH with L5V, Q13K, V24A, Q44G, R71V, N73K, S74A, T77S, V78A, A96T
VL: B1 VL with V11L, A44V, S66T, F72Y, F84V, Y88F, G103Q, V107L
notes: also called 2109FW/645CDR Fab nh; #3
B3: 645CDR-497FW Fab nh (Fab, V domains shown)
VH: EVQLVESGGGLVKPGGSLRLSCAASGIDLSNYAINWVRQAPGKGLEWVGIIWASGTTFYATWAKGRFTISRDDSKNTLYLQMNSLKTEDTAVYYCTTTVPGYSTAPYFDLWGQGTLVTVSS
VL: B1 VL with D1A, M4L, V11L, G103Q
notes: also called 497FW/645CDR Fab nh; 645CDR -497FW/645CDR Fab nh
B4: 645CDR-2109FW Fab-A26 ds HL BYbe (bispecific antibody, part only; not given: A26 dsscFv, linker, CH1, CL, V domains shown, not shown: another chain or arm of the molecule; a dimerising Fc or GST; small tags and cut ends)
VH: B3 VH with V48I, R71V, D73K, S74A, T77S, L78A, K86R, T87A, T97R
VL: B1 VL with V11L, A44V, S66T, F72Y, F84V, Y88F, G103Q, V107L
B5: 645CDR-497FW Fab-A26 ds HL BYbe (bispecific antibody, part only; not given: A26 dsscFv, linker, CH1, CL, V domains shown, not shown: another chain or arm of the molecule; a dimerising Fc or GST; small tags and cut ends)
VH: B3 VH
VL: B1 VL with D1A, M4L, V11L, G103Q

The binders below were run against T1, Human serum albumin (human, UniProt P02768 25-609) (assay: SPR (Biacore), antibody captured on the chip, HSA as analyte, 25 C, 1:1 model).
T1 construct: Bought purified protein, injected as the analyte in SPR; also called HSA; Human albumin, ChromPure (Jackson ImmunoResearch)

B1 and B2 are within 1.5-fold of each other in Kd: 1.61 nM for the first, 1.52 nM for the second.

B3 and B4 are within 1.5-fold of each other in Kd: 4.63 nM for the first, 4.74 nM for the second.

With B5 the Kd was 1.23 nM.

B1 and B2 are within 1.5-fold of each other in koff: 0.00025 s⁻¹ for the first, 0.000227 s⁻¹ for the second.

B3 and B4 are within 1.5-fold of each other in koff: 0.000601 s⁻¹ for the first, 0.000651 s⁻¹ for the second.

Work on B5 yielded a koff of 0.000186 s⁻¹.

B1 and B2 are within 1.5-fold of each other in kon: 156000 M⁻¹ s⁻¹ for the first, 150000 M⁻¹ s⁻¹ for the second.

B3 and B4 are within 1.5-fold of each other in kon: 130000 M⁻¹ s⁻¹ for the first, 137000 M⁻¹ s⁻¹ for the second.

In the case of B5, the kon is reported as 151000 M⁻¹ s⁻¹.
